Among the data in article PMC7865483 are fold increase of the PLA signal after serum starvation or serum starvation + H2O2, against control cells values, retold here.

The assay deals with EE-tagged Pank1β (pantothenate kinase 1β), stably overexpressed in HEK293 cells (UniProt Q8TE04). Put plainly: proximity ligation; in situ PLA (Duolink) on fixed HEK293/Pank1β cells with anti-Pank1 and anti-CoAsy, anti-PPCS or anti-PPCDC antibodies; exponentially growing cells in full medium; for Pank1/CoAsy also after 16 h serum starvation, serum starvation + 500 μM H2O2 for 10 min, and serum starvation + 1 μM insulin for 3 h or 6 h.
EE-tagged Pank1β (pantothenate kinase 1β), stably overexpressed in HEK293 cells, sequence (Q8TE04 other isoform, or with tags, fused parts or gaps): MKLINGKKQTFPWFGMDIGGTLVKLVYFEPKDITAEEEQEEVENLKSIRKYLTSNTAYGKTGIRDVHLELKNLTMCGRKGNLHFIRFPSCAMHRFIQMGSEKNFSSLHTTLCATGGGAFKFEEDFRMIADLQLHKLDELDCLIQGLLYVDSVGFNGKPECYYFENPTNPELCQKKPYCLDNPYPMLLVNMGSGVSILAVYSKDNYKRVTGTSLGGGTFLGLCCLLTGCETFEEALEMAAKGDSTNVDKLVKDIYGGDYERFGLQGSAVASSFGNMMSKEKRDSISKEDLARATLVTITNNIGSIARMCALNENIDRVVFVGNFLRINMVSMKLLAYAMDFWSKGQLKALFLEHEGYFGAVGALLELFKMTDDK

As for “CoA synthase (CoAsy) (from UniProt Q13057 1-564) (enzyme)”, the fold increase of the PLA signal after serum starvation or serum starvation + H2O2, against control cells amounted to 2 fold.
